Experimental data: PMC8631942

How the values were obtained:
SHP1 = SHP1 (UniProt P29350); assay: GFP-Trap co-IP, SHP1 blot; conditions: reference: BTLA wild type
SHP2 = SHP2 (UniProt Q06124); assay: GFP-Trap co-IP, SHP2 blot; conditions: reference: BTLA wild type

Substance	binding against the reference (SHP1; sites Y282)	binding against the reference (SHP2; sites Y282)	binding against the reference (SHP1; sites Y257)	binding against the reference (SHP2; sites Y257)
BTLA (from UniProt Q7Z6A9) BTLAYYYF (Y282F)	lost	lost	–	–
BTLA (from UniProt Q7Z6A9) BTLAYYFY (Y257F)	–	–	lost	lost
